Data published in patent US20150086555A1.

Legend:
Conditions in all cases: remark: other sources report otherwise
[1] = biological target: T1, recombinant soluble homotrimeric HA of A/common magpie/Hong Kong/5052/07 (H5N1) (Influenza A virus A/common magpie/Hong Kong/5052/2007(H5N1)); assay: HA microarray, BCC supernatant
[2] = biological target: recombinant soluble homotrimeric HA, A/common magpie/Hong Kong/5052/07 H5N1 (Influenza A virus A/common magpie/Hong Kong/5052/2007(H5N1)); assay: microarray, transfection SN IgG, trimeric HA
[3] = biological target: recombinant homotrimeric HA A/common magpie/Hong Kong/5052/07 H5N1 (Influenza A virus A/common magpie/Hong Kong/5052/2007(H5N1)); assay: protein microarray, purified IgG, trimeric HA
[4] = biological target: T1, recombinant soluble homotrimeric HA of …; assay: trimeric HA microarray, transfection supernatant set 5
[5] = biological target: T1, recombinant soluble homotrimeric HA of …; assay: trimeric HA microarray, transfection supernatant set 2

Binder | Trimeric HA Binding: RLU [1] | Trimeric HA Binding: RLU [2] | Trimeric HA Binding: RLU [3] | Trimeric HA Binding: RLU [4] | Trimeric HA Binding: RLU [5]
TCN-552 (5249_I23) (antibody, V domains shown) VH: QVQVVQSGAEVKKPGSSVRVSCQASGGTFMNYAIIWVRRAPGQGLEWMGGIIPVFPTPNYAQMFQGRVTISTDESRSTSFLELTNLRYEDTAVYYCARRIYHGGNSGFDFWGQGTLVTVSS VL: EIVLTQSPATLSLSPGERATLSCRASQSVGNYLAWYQQKPGQAPRLLIYDSSNRAPGIPARFSGSGSGTDFTLTISSLAPEDFAVYYCQQRSKWPPMYSFGHGTKLEIK | 42200 RLU | 34600 RLU | 19400 RLU |  | 
TCN-545 (5082_I15) (antibody, V domains shown) VH: QVQLQQWGAGLLKPSETLSLSCAVFGGSFSDYYWTWIRQPPGKGLEWIGEIKHSGRTNYNPSLESRVTISVDTSKNQFSLKLSSVTAADTAIYYCARGTDPDTEGYCRSGSCSAFDFWGQGTLVTVSS VL: EIVLTQSPGTLSLSPGERATLSCRASHFVNYRSLAWYQQTPGQVPRLLIYGASTRATGIPDRFSGSGSGTDFTLTISRLEPEDFAVYFCQQYGGSPRYTFGQGTRLEIK |  |  | 804 RLU | 1390 RLU | 
TCN-528 (5087_P17) (antibody, V domains shown) VH: QVQLVQSGSEVKKPGASVKVSCKASGYTFTNYDINWIRQAPGQGLEWMGWINPNSGTTGSAQRFQGRVTITVDTSITTVYMELSSLRSDDTAIYYCARGRELLRLQHFLTDSQSERRDCFDPWGQGTLVTVSS VL: DIQMTQSPSSLSASVGDRVTITCRANQDIGIYLNWYQQNPGKVPKLLLHGASSLQGGVPSRFSASGSGTDFTLTIHSLQPEDLATYYCQQSRRLPYTFGQGTRVELK |  |  | 25500 RLU |  | 45300 RLU
TCN-521 (3280_D18) (antibody, V domains shown) VH: EVQLVQSGGGLVQPGGSLRLACVVSGFTVTSNYITWVRQAPGKGLEWVSVIYSHGRAYYSASVNGRFTISRHTSKNTVYLEMNSLRPEDTAVYYCAGGGLVGGYDEYFFDYWGQGTLATVSS VL: ETVLTQSPGTLSLTPGERATLSCRVGQSVSGSHLAWYQQKPGQAPRLLIYGASSRATGIPDRFGGSVSGTDFTLTISRLEPEDSAVYYCQQYGDSRYTFGQGTKLEIK | 13500 RLU |  |  |  | 
TCN-555 (5246_L16) (antibody, V domains shown) VH: QVQLVQSGAEVKRPGSSVKVSCTASGGIFRKNAISWVRQAPGQGLEWMGGIIAVFNTANYAQKFQNRVKITADESGNTAYMELSSLTSDDTAVYYCASHPKYFYGSGSYPDFWGQGTLVTVSS VL: QSALTQPRSVSGSPGQSITISCTGGSSDIGASNSVSWYQQHPGKAPKLVIFDVTERPSGVPHRFSGSKSGNTASLTVSGLQPDDEADYFCCAYGGKYLVVFGGGTKVTVL | 16100 RLU | 33600 RLU | 17000 RLU |  | 
TCN-522 (3212_I12) (antibody, V domains shown) VH: QVQLQQWGAGLLKPSETLSLTCTVSGGSLTDYSWNWIRQPPGKGLEWIGDTLHNGYTNYNPSLRGRVSISIDTSKNQVSLRLTSVTAADTALYYCARGSGGYGGFDYFGKLRTWDFWGQGTLVTVSS VL: DIQLTQSPSSLSASVGDRVTITCRASQGIRNDLGWYQQKPGNAPKRLIFGASSLQSGVPSRFSGSGSGTEFTLTISSLQPEDFATYYCLQHNSYPYTFGQGTKLEIK |  |  | 15100 RLU |  | 21400 RLU
TCN-557 (5081_A04) (antibody, V domains shown) VH: QVQLVQSGAEVKKPGASVKVSCKASGHTFTGYYIHWVRQAPGQGLEWMGWINPDSGATSSAQNFQGRVTMTGDTSSSTAYMELSRLSFDDTAVYYCARVLFTSPFDFWGEGTLVTVSS VL: QAVVTQEPSLAVSPGGTVTLTCGSSTGAVTRGHYPYWFQQKPGQAPRALIYDSAGNRHSWTPARFSGSLLGGKAALTLSGAQPEDEAEYYCLLSYSGVWVFGGGTKLTVL |  | 54900 RLU | 23700 RLU |  | 
TCN-553 (5261_C18) (antibody, V domains shown) VH: QVQVVQSGTEVKKPGSSVKVSCQTSGGRFMSYAITWVRQAPGQGLEWMGGIVPVFGTANYAQKFQGRVTITTDDSTRTAYMELSSLRSEDTAVYYCGFRYGSGYGFDSWGQGTLVTVSS VL: EIVLTQSPGTLSLSPGERATLSCRASQSVSSSYLAWYQKKPGQAPRLLIYGASTRATGIPDRFTGSGSGTDFTLSISRLEPEDFAVYYCQHFGTSVFTFGGGTKVEIK | 26000 RLU | 39200 RLU | 22800 RLU |  | 
TCN-542 (5079_A16) (antibody, V domains shown) VH: QVQLQESGPGLVKPSQTLSLTCTVSGGSISSGNYYWNWVRQHPGKGLEWIGYIYYRGSTFYNPSLKSRVTISIDTSKNQFSLRLSSVTAADTAVYYCAKDTRSSLDNYQYGMDVWGQGTTVTVSS VL: QTVVTQEPSLTVSPGGTVTLTCASSTGAVTSSYFPNWFQQKPGQAPRPLIYSTTIRHSWTPARFSGSLLGGKAALTLSGVQPEDEADYYCLLYSGGDPVAFGGGTKLTVL |  |  | 1540 RLU |  | 
TCN-539 (5056_A08) (antibody, V domains shown) VH: QVQLVESGGGVVQPGRSLRLSCAASEITFITYAMHWVRQAPGKGLEWVALISDDGSNKFYADSVKGRFTISRDNSKNTLYLQMNSLRAEDTAAYYCAREGVYFDSGTYRGYFDYWGQETLVTVSS VL: EIVLTQSPATLSLSPGERATLSCRASQSVSSYLAWYQQKPGQAPRLLIYDASNRATGIPARFSGSGSGTDFTLTISSLEPEDFAVYYCQQRSHWPPITFGQGTRLEIK | 3960 RLU |  |  |  | 
TCN-551 (5243_D01) (antibody, V domains shown) VH: EVQLVQSGSEVKKPGESLKISCKGSGYSFSNYWIGWVRHMPGKGLEWMGIIYPGDSDTRYSPSFQGQVTMSADKSSSTVYLQWSSLKASDTAIYYCARRGGHSFGYGSGGDTHSEFDSWGQGTLVTVSS VL: QSVLTQSPSVSAAPGQKVTISCSGSDSNIGDYFVCWYQHLPGKPPQLLIYENNKRPSGIPDRFSGSKSGTSATLGITGIQTGDEADYYCATWDGSLSAWVFGGGTKLTVL | 45700 RLU |  | 907 RLU |  | 
TCN-550 (5096_F06) (antibody, V domains shown) VH: QVQLQESGPGLVKPSETLSLTCTVSGASINSHYWSWIRQPPGKGLEWIGYVYYSGSTTYNPSLKSRVTLSVDTSKNQFSLNLSSVTAADTAFYYCARHPYDVLTGSGDWFDPWGQGTLVTVSS VL: SYVLTQAPSVSVAPGQTARITCGGNAIGSKKVHWYQHKAGQAPVLVVYDDTDRPSGIPERFSGSNSWSTATLTINRVEAGDEADYYCQVWDFTIDHVVFGGGTKLTVL |  | 993 RLU | 753 RLU |  | 
TCN-546 (5089_L08) (antibody, V domains shown) VH: QVQLQQWGAGLLKPSETLSLTCGVYGGSLSDYYWSWIRQPPGKGLEWIGEINHSGGTNYNPSLKRRVTISVDTSKKQFSLKMNSVTAADTAVYYCARGTDPDTEVYCRAGNCAAFDFWGQGTLVTVSS VL: EIVLTQSPGTLSLSPGERATLSCRASHFVIGRAVAWYQQKPGQAPRLLIYGASSRATGIPDRFSGSGSGTDFTLTISRLETEDFAVFYCQHYGSSPRYAFGQGTKLEIK |  |  | 810 RLU | 1920 RLU | 
TCN-543 (5081_G23) (antibody, V domains shown) VH: QVHLVQSGAEVRKPGDSVKVSCKTSGYTFSTYPVAWVRQVPGQGLEWMGWISTYNGNTNFAQNFQGRVTLTTDTTTNTAYMEVRSLKFDDTAVYYCARVEGSYRDFWNNQNRFDPWGQGTLVTVSS VL: SYVLTQPPSVSVAPGQTARISCGGSNIGGKSVHWYQQKPGQAPVLVVYDDSGRPSGIPERFSGSNSGDTATLTISRVEAGDEADYFCQVWDNFGGVFGTGTKVTVL |  |  | 679 RLU | 1070 RLU | 
TCN-541 (5062_M11) (antibody, V domains shown) VH: QVQLQESGPGLVKPSETLSLTCTVSGGSINSYYWNWIRQPPGKGLEWIGYIYHSGSTNYNPSLKSRVTISVDTSKNQFSLQLSSVTAADTAVYYCARLRTDYGDPDSVYYYGMDVWGQGTTVTVSS VL: SYELTQPPSVSVSPGQTARITCSGDALPKQNAYWYQQKPGQAPVLLIYKDSERPSGIPERFSGSSSGTTVTLTISGVQAEDEADYYCQSADSSGTSWVFGGGTKLTVL |  |  | 728 RLU |  | 
TCN-537 (3194_D21) (antibody, V domains shown) VH: QVQLQQWGSGLLKPSETLSLTCAVYGGSFRDDYWTWIRQPPGKGLEWIGEINHSGRTNYNPSLKSRVTISVDTSLKQFSLKVISVTAADTAVYYCARGTSHVSRYFDWLPPTNWFDPWGQGTQVTVSS VL: DIVLTQSPGTLSLSPGERATLSCRASQSVSSSYLAWYQQKPGQAPRLVMYGAATRATGIPDRFSGSGSGPDFTLTISRLEPEDFAMYYCQQYGNSPITFGQGTRLEIK | 18700 RLU |  | 810 RLU | 2070 RLU | 
TCN-527 (5086_C06) (antibody, V domains shown) VH: QVQLQESGPGLVKPSETLSLNCAVSGGSISNYYWSWIRQPPGKGLEWIGYISYNGRPKYNPSLTSRVTISVDTSKDQFSLELRSVTAADTALYYCARETRFGELLSPYDAFEIWGQGTMVTVSS VL: DIQMTQSPSSLSASVGDRVTMTCRASQNIRSYLNWYQQRPGTAPKLLIYAASTLHSGVPSRFSGGGSGTDFTLTINNLQPEDFASYYCQQSYDNPQTFGQGTKVEIK |  |  | 24600 RLU |  | 43800 RLU
TCN-538 (3206_O17) (antibody, V domains shown) VH: QITLKESGPTLVKPTQTLTLTCVFSGFSLSITGVRVGWIRQPPGKALEWLALISWDDEKHYSPSLQSRLTITKDTSKNQVVLTMTNLDPVDTATYYCARSTDRGHVLRYFGWMLPGDAFDVWGQGTMVTVSS VL: DIVMTQSPDFLPVSLGERATINCKSSQRVLYSSNNKNYLAWYQLKPGQPPKLIIYWASTRESGVPDRFSGSGSGTEFTLTISSLQAEDVAVYYCQQYYSRPYTFGQGTKLEIK | 18700 RLU |  | 5140 RLU | 3140 RLU | 
